Results: paper PMC3985918 (Biochemistry, 2014)

Experiments:
TylM1 [1] = molecular target: T1, TylM1 (Streptomyces fradiae, UniProt P95748); assay: X-ray crystal structure, […] Å; assay type: binding; conditions: complex with SAH; active site
T1 sequence (P95748 2-255): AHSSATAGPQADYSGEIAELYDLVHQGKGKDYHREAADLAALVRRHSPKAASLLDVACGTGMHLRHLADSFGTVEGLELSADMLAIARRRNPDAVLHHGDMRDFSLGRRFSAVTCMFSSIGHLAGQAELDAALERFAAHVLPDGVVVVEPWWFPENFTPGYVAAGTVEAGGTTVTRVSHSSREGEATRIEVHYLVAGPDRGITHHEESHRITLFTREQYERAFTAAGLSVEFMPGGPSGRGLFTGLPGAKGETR

TylM1 [2] = molecular target: T1, TylM1; assay: X-ray crystal structure, […] Å; assay type: binding; conditions: complex with SAH; active site; remark: listed apart in the source
purified protein [3] = substrate: Cc1cn([C@H]2C[C@H](O)[C@@H](COP(=O)(O)OP(=O)(O)O[C@H]3O[C@H](C)[C@@H](O)[C@H](N)[C@H]3O)O2)c(=O)[nH]c1=O; assay: purified protein; conditions: methyl donor SAM
purified protein [4] = substrate: Cc1cn([C@H]2C[C@H](O)[C@@H](COP(=O)(O)OP(=O)(O)O[C@H]3O[C@H](C)[C@H](O)[C@H](N)[C@H]3O)O2)c(=O)[nH]c1=O; assay: purified protein; conditions: methyl donor SAM

Molecule: CN[C@H]1[C@@H](O)[C@@H](C)O[C@H](OP(=O)(O)OP(=O)(O)OC[C@H]2O[C@@H](n3cc(C)c(=O)[nH]c3=O)C[C@@H]2O)[C@@H]1O [dTDP-3-N-methylamino-3,6-dideoxygalactose]
- X-ray crystal structure, 2.2 Å (TylM1 [1]): enzyme in complex with SAH and dTDP-3-N-methylamino-3,6-dideoxygalactose

Molecule: Cc1cn([C@H]2C[C@H](O)[C@@H](COP(=O)(O)OP(=O)(O)O[C@H]3O[C@H](C)[C@@H](O)[C@H](N(C)C)[C@H]3O)O2)c(=O)[nH]c1=O [dTDP-mycaminose]
- X-ray crystal structure, 1.6 Å (TylM1 [2]): The first structure determined for this investigation was that of TylM1 in complex with SAH

B1: TylM1 (Streptomyces fradiae) (protein)
chain: AHSSATAGPQADYSGEIAELYDLVHQGKGKDYHREAADLAALVRRHSPKAASLLDVACGTGMHLRHLADSFGTVEGLELSADMLAIARRRNPDAVLHHGDMRDFSLGRRFSAVTCMFSSIGHLAGQAELDAALERFAAHVLPDGVVVVEPWWFPENFTPGYVAAGTVEAGGTTVTRVSHSSREGEATRIEVHYLVAGPDRGITHHEESHRITLFTREQYERAFTAAGLSVEFMPGGPSGRGLFTGLPGAKGETR
- Km (purified protein [3]): 79 ± 15 µM
- kcat (purified protein [3]): 0.75 ± 0.09 s⁻¹
- Km (purified protein [4]): 1540 ± 80 µM
- kcat (purified protein [4]): 0.61 ± 0.07 s⁻¹
